PMC4780704, “A Parallel G Quadruplex-Binding Protein Regulates the Boundaries of DNA Elimination Events of Tetrahymena thermophila”

Columns and labels:
[1] = biological target: T1, His-Lia3 (Tetrahymena thermophila, UniProt A3F815 1-322); experiment: competition; 5X/20X vs G4-M1 probe; EMSA: 10 mM Tris pH 7.5, 1 mM EDTA, 0.1 mM DTT, 5% glycerol, 0.010 mg/ml BSA, 100 mM KCl (or 100 mM LiCl to limit G4), 4 nM probe, RT; settings: protein: recombinant; tags: N-terminal His; parallel intermolecular G4, 4 strands (100 mM KCl)
T1 sequence: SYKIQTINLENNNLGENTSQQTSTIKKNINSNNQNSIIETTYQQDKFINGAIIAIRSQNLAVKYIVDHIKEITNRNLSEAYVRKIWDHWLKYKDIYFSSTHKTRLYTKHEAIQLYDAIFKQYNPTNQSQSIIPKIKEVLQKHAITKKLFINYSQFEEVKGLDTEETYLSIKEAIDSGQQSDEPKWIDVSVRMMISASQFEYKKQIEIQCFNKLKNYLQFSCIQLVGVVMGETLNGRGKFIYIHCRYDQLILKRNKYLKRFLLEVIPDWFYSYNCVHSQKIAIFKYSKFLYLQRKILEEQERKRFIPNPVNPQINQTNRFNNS

[2] = biological target: T1, His-Lia3; experiment: EMSA; 100 mM KCl; EMSA: 10 mM Tris pH 7.5, 1 mM EDTA, 0.1 mM DTT, 5% glycerol, 0.010 mg/ml BSA, 100 mM KCl (or 100 mM LiCl to limit G4), 4 nM probe, RT; settings: protein: recombinant; tags: N-terminal His; label: 32P (5' PNK); mixed G4 (100 mM KCl)
[3] = biological target: T2, MBP-Lia3 (Tetrahymena thermophila, UniProt A3F815 1-322); experiment: competition; excess vs G4-M1 probe; 400 nM protein; EMSA: 10 mM Tris pH 7.5, 1 mM EDTA, 0.1 mM DTT, 5% glycerol, 0.010 mg/ml BSA, 100 mM KCl (or 100 mM LiCl to limit G4), 4 nM probe, RT; settings: protein: recombinant; tags: N-terminal MBP-TEV-His; linear, no G4
T2 sequence: T1 sequence

B1: G4-M2 (structured_DNA)
DNA: TTCAAGACAAAAAAAGGGGGATGGGTTTCC
Q: Does B1 bind [1]?
A: binds

B2: G4 Tetrahymena telomere (structured_DNA)
DNA: TTGGGGTTGGGGTTGGGGTTGGGG
Q: With B2 as the binder, how does the Kd [2] read?
A: 11.5 µM

B3: M1-C3 (C3G2 mutant) (ssDNA)
DNA: TTTATTAATCAAAAACCCGGTAAATAATAA
Q: Does B3 bind [3]?
A: no binding
